{"source": "patent US20080176225A1", "about": "“MEMBRANE BOUND REPORTER GENE SYSTEM” (priority 2007, published 2008)", "molecules": {"B1": {"name": "E. coli β-glucuronidase: purified recombinant E. coli β-glucuronidase protein (protein, UniProt P05804 1-603, looked up)", "Beta-glucuronidase": "MLRPVETPTREIKKLDGLWAFSLDRENCGIDQRWWESALQESRAIAVPGSFNDQFADADIRNYAGNVWYQREVFIPKGWAGQRIVLRFDAVTHYGKVWVNNQEVMEHQGGYTPFEADVTPYVIAGKSVRITVCVNNELNWQTIPPGMVITDENGKKKQSYFHDFFNYAGIHRSVMLYTTPNTWVDDITVVTHVAQDCNHASVDWQVVANGDVSVELRDADQQVVATGQGTSGTLQVVNPHLWQPGEGYLYELCVTAKSQTECDIYPLRVGIRSVAVKGEQFLINHKPFYFTGFGRHEDADLRGKGFDNVLMVHDHALMDWIGANSYRTSHYPYAEEMLDWADEHGIVVIDETAAVGFNLSLGIGFEAGNKPKELYSEEAVNGETQQAHLQAIKELIARDKNHPSVVMWSIANEPDTRPQGAREYFAPLAEATRKLDPTRPITCVNVMFCDAHTDTISDLFDVLCLNRYYGWYVQSGDLETAEKVLEKELLAWQEKLHQPIIITEYGVDTLAGLHSMYTDMWSEEYQCAWLDMYHRVFDRVSAVVGEQVWNFADFATSQGILRVGGNKKGIFTRDRKPKSAAFLLQKRWTGMNFGEKPQQGGKQ"}, "B2": {"name": "mβG-e-B7: murine β-glucuronidase fused to immunoglobulin-like C2-type extracellular region, transmembrane domain and cytoplasmic tail of murine B7-1 antigen (protein)", "chain": "LKGGMLFPKESPSRELKALDGLWHFRADLSNNRLQGFEQQWYRQPLRESGPVLDMPVPSSFNDITQEAALRDFIGWVWYEREAILPRRWTQDTDMRVVLRINSAHYYAVVWVNGIHVVEHEGGHLPFEADISKLVQSGPLTTCRITIAINNTLTPHTLPPGTIVYKTDTSMYPKGYFVQDTSFDFFNYAGLHRSVVLYTTPTTYIDDITVITNVEQDIGLVTYWISVQGSEHFQLEVQLLDEDGKVVAHGTGNQGQLQVPSANLWWPYLMHEHPAYMYSLEVKVTTTESVTDYYTLPVGIRTVAVTKSKFLINGKPFYFQGVNKHEDSDIRGKGFDWPLLVKDFNLLRWLGANSFRTSHYPYSEEVLQLCDRYGIVVIDECPGVGIVLPQSFGNESLRHHLEVMEELVRRDKNHPAVVMWSVANEPSSALKPAAYYFKTLITHTKALDLTRPVTFVSNAKYDADLGAPYVDVICVNSYFSWYHDYGHLEVIQPQLNSQFENWYKTHQKPIIQSEYGADAIPGIHEDPPRMFSEEYQKAVLENYHSVLDQKRKEYVVGELIWNFADFMTNQSPLRVIGNKKGIFTRQRQPKTSAFILRERYWRIANETGGHGSGPRTQCFGSRPFTFVDEQKLISEEDLADFSTPNITESGNPSADTKRITCFASGGFPKPRFSWLENGRELPGINTTISQDPESELYTISSQLDFNTTRNHTIKCLIKYGDAHVSEDFTWEKPPEDPPDSKNTLVLFGAGFGAVITVVVIVVIIKCFCKHRSCFRRNEASRETNNSLTFGPEEALAEQTVFL"}, "B3": {"name": "hβG-e-B7: human β-glucuronidase fused to Ig-like C2-type and Ig-hinge-like domains, TM and cytoplasmic tail of murine B7-1 (protein)", "chain": "LQGGMLYPQESPSRECKELDGLWSFRADFSDNRRRGFEEQWYRRPLWESGPTVDMPVPSSFNDISQDWRLRHFVGWVWYEREVILPERWTQDLRTRVVLRIGSAHSYAIVWVNGVDTLEHEGGYLPFEADISNLVQVGPLPSRLRITIAINNTLTPTTLPPGTIQYLTDTSKYPKGYFVQNTYFDFFNYAGLQRSVLLYTTPTTYIDDITVTTSVEQDSGLVNYQISVKGSNLFKLEVRLLDAENKVVANGTGTQGQLKVPGVSLWWPYLMHERPAYLYSLEVQLTAQTSLGPVSDFYTLPVGIRTVAVTKSQFLINGKPFYFHGVNKHEDADIRGKGFDWPLLVKDFNLLRWLGANAFRTSHYPYAEEVMQMCDRYGIVVIDECPGVGLALPQFFNNVSLHHHMQVMEEVVRRDKNHPAVVMWSVANEPASHLESAGYYLKMVIAHTKSLDPSRPVTFVSNSNYAADKGAPYVDVICLNSYYSWYHDYGHLELIQLQLATQFENWYKKYQKPIIQSEYGAETIAGFHQDPPLMFTEEYQKSLLEQYHLGLDQKRRKYVVGELIWNFADFMTEQSPTRVLGNKKGIFTRQRQPKSAAFLLRERYWKIANETRYPHSVAKSQCLENSPFTVDEQKLISEEDLADFSTPNITESGNPSADTKRITCFASGGFPKPRFSWLENGRELPGINTTISQDPESELYTISSQLDFNTTRNHTIKCLIKYGDAHVSEDFTWEKPPEDPPDSKNTLVLFGAGFGAVITVVVIVVIIKCFCKHRSCFRRNEASRETNNSLTFGPEEALAEQTVFL"}, "B4": {"name": "human β-glucuronidase: purified recombinant human β-glucuronidase protein (protein, listed as Homo sapiens)", "chain": "LQGGMLYPQESPSRECKELDGLWSFRADFSDNRRRGFEEQWYRRPLWESGPTVDMPVPSSFNDISQDWRLRHFVGWVWYEREVILPERWTQDLRTRVVLRIGSAHSYAIVWVNGVDTLEHEGGYLPFEADISNLVQVGPLPSRLRITIAINNTLTPTTLPPGTIQYLTDTSKYPKGYFVQNTYFDFFNYAGLQRSVLLYTTPTTYIDDITVTTSVEQDSGLVNYQISVKGSNLFKLEVRLLDAENKVVANGTGTQGQLKVPGVSLWWPYLMHERPAYLYSLEVQLTAQTSLGPVSDFYTLPVGIRTVAVTKSQFLINGKPFYFHGVNKHEDADIRGKGFDWPLLVKDFNLLRWLGANAFRTSHYPYAEEVMQMCDRYGIVVIDECPGVGLALPQFFNNVSLHHHMQVMEEVVRRDKNHPAVVMWSVANEPASHLESAGYYLKMVIAHTKSLDPSRPVTFVSNSNYAADKGAPYVDVICLNSYYSWYHDYGHLELIQLQLATQFENWYKKYQKPIIQSEYGAETIAGFHQDPPLMFTEEYQKSLLEQYHLGLDQKRRKYVVGELIWNFADFMTEQSPTRVLGNKKGIFTRQRQPKSAAFLLRERYWKIANETRYPHSVAKSQCLENSPFT"}, "B5": {"name": "mouse β-glucuronidase: purified recombinant mouse β-glucuronidase protein (protein, listed as Mus musculus)", "chain": "LKGGMLFPKESPSRELKALDGLWHFRADLSNNRLQGFEQQWYRQPLRESGPVLDMPVPSSFNDITQEAALRDFIGWVWYEREAILPRRWTQDTDMRVVLRINSAHYYAVVWVNGIHVVEHEGGHLPFEADISKLVQSGPLTTCRITIAINNTLTPHTLPPGTIVYKTDTSMYPKGYFVQDTSFDFFNYAGLHRSVVLYTTPTTYIDDITVITNVEQDIGLVTYWISVQGSEHFQLEVQLLDEDGKVVAHGTGNQGQLQVPSANLWWPYLMHEHPAYMYSLEVKVTTTESVTDYYTLPVGIRTVAVTKSKFLINGKPFYFQGVNKHEDSDIRGKGFDWPLLVKDFNLLRWLGANSFRTSHYPYSEEVLQLCDRYGIVVIDECPGVGIVLPQSFGNESLRHHLEVMEELVRRDKNHPAVVMWSVANEPSSALKPAAYYFKTLITHTKALDLTRPVTFVSNAKYDADLGAPYVDVICVNSYFSWYHDYGHLEVIQPQLNSQFENWYKTHQKPIIQSEYGADAIPGIHEDPPRMFSEEYQKAVLENYHSVLDQKRKEYVVGELIWNFADFMTNQSPLRVIGNKKGIFTRQRQPKTSAFILRERYWRIANETGGHGSGPRTQCFGSRPFTF"}}, "key": {"[1]": {"experiment": "Specific activity and pH profile of purified recombinant β-glucuronidases", "format": "biochemical", "conditions": "purified recombinant protein, n=3; for maximal specific activity: at optimal pH", "excerpt": "It is contemplated that the disparity between the relative surface expression levels the relative enzymatic activity of human β-glucuronidase, mouse β-glucuronidase, and E. coli β-glucuronidase in EJ cells is probably because of the neutral pH optimum of E. coli β-glucuronidase or a highly specific enzyme activity for the recombinant E. coli β-glucuronidase enzyme, which could cause the relatively effective hydrolysis of glucuronide substrates even though even though the expression levels of E. coli β-glucuronidase present on EJ/eβG cells are relatively lower than the expression levels of human β-glucuronidase. To differentiate these possibilities, recombinant forms of each enzyme are purified in order to measure accurately their specific activities at defined pH values.\nThe relative enzymatic activities (percentage maximum activity) of these recombinant enzymes at the indicated pH values are shown (n=3).\nE. coli β-glucuronidase display a maximal specific activity of about 20,000 U/mg whereas human β-glucuronidase and mouse β-glucuronidase had maximal specific activities of abut 1600 U/mg and about 1100 U/mg, respectively."}, "EJ cells": {"test_system": "EJ cells", "experiment": "Surface β-glucuronidase enzyme activity of stable EJ cells", "format": "cell-based, human", "conditions": "triplicate determinations", "description": "(§1) For performing surface enzyme activity assay, transiently-transfected 3T3 fibroblasts in 96-well microplates were washed once with phosphate-buffered saline and immediately assayed for βG activity by adding about 200 μl of phosphate-buffered saline (pH 7.0) buffer containing 0.1% of BSA and 0.25 mM of a β-glucuronidase substrate, 4-methylumbelliferyl β-D-glucuronide, for 30 min at 37° C. About 150 μl of the resulting mixture was transferred to a 96-well fluorescence microplate and mixed with about 75 μl of a stop buffer containing about 1 M of glycine and about 0.5 M of sodium bicarbonate at pH 11. The fluorescence of each mixture was measured at an excitation wavelength of 365 nm and an emission wavelength of 455 nm.\nThe results shown are the mean values of triplicate determinations. EJ/mβG cells display about 2-3 fold more β-glucuronidase activity than EJ/eβG cells and about 5-fold higher activity than EJ/hβG cells. […] The enzymatic activity of E. coli β-glucuronidase in EJ cells are relatively higher than human β-glucuronidase, even though the expression levels of E. coli β-glucuronidase present on EJ/eβG cells are relatively lower than the expression levels of human β-glucuronidase."}, "3T3 fibroblasts": {"test_system": "3T3 fibroblasts", "experiment": "Surface enzyme activity assay of transiently transfected 3T3 fibroblasts (4-methylumbelliferyl β-D-glucuronide)", "format": "cell-based, murine", "description": "as §1\n3T3 fibroblasts were transfected with plasmid DNAs using lipofectamine. After about 48 hour, the transfected cells were washed with phosphate-buffered saline and immediately assayed for β-glucuronidase activity by adding 4-methylumbelliferyl β-D-glucuronide for about 30 min at 37° C. The fluorescence (MUG reading as shown) of the resulting mixture was measured. The β-glucuronidase activity in the culture medium of transfected cells was also measured in an analogous way."}}}
{"molecule": "B1", "values": [{"measurement": "maximal specific activity", "setting": "[1]", "value": "about 20,000 U/mg"}, {"measurement": "pH of maximal/optimal enzymatic activity", "setting": "[1]", "value": "neutral pH range"}]}
{"molecule": "B2", "values": [{"measurement": "surface β-glucuronidase activity of EJ/mβG cells relative to EJ/hβG cells", "setting": "EJ cells; higher activity", "value": "about 5 fold"}, {"measurement": "surface β-glucuronidase activity of EJ/mβG cells relative to EJ/eβG cells", "setting": "EJ cells; more activity", "value": "2-3 fold"}]}
{"molecule": "B3", "values": [{"measurement": "β-glucuronidase enzyme activity on the cell surface", "setting": "3T3 fibroblasts", "value": "greatest levels"}]}
{"molecule": "B4", "values": [{"measurement": "maximal specific activity", "setting": "[1]", "value": "~1600", "unit": "U/mg"}]}
{"molecule": "B5", "values": [{"measurement": "maximal specific activity", "setting": "[1]", "value": "about 1100 U/mg"}]}
